Each substance was assayed against derCD23 (monomeric CD23 protein) (human) (UniProt P06734) (assay: SPR).
UniProt P06734, sequence (P06734 156-298): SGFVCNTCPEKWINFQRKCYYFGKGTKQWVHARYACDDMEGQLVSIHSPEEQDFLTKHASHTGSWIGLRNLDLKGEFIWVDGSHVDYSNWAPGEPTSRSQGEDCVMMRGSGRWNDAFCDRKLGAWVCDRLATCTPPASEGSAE

Kd | Substance
2.4 µM | Recombinant human IgE-Fc (composed of domains Cϵ2-Cϵ4) (domain or fragment)

Each substance was assayed against Recombinant human IgE-Fc (composed of domains Cϵ2-Cϵ4) (human) (assay: SPR).

Kd | Substance
2.3 µM | derCD23 (monomeric CD23 protein) (from UniProt P06734 156-298) (domain or fragment)

Biological target: Recombinant human IgE-Fc (composed of domains Cϵ2-Cϵ4) (human)
Assay: SPR
Remark: another data set of the same source

Substance | Kd
derCD23 E257A (from UniProt P06734 1-321) (domain or fragment) | 26.7 µM
derCD23 D236A (from UniProt P06734 1-321) (domain or fragment) | 5.8 µM
derCD23 Y189A (from UniProt P06734 1-321) (domain or fragment) | 15.6 µM
derCD23 L226A (from UniProt P06734 1-321) (domain or fragment) | 6.6 µM
derCD23 R224A (from UniProt P06734 1-321) (domain or fragment) | 26.2 µM
derCD23 D192A (from UniProt P06734 1-321) (domain or fragment) | 4.3 µM

The remaining lines, values ahead:

Kd | Substance
2.5 µM | derCD23 E265A (domain or fragment)
10.9 µM | derCD23 K276A (from UniProt P06734 1-321) (domain or fragment)
25 µM | derCD23 R188A (from UniProt P06734 1-321) (domain or fragment)
2.3 µM | derCD23 (monomeric CD23 protein) (from UniProt P06734 156-298) (domain or fragment)
30.9 µM | derCD23 D227A (from UniProt P06734 1-321) (domain or fragment)

Biological target: derCD23 (monomeric CD23 protein) (human) (UniProt P06734)
Assay: SPR
Remark: another data set of the same source

Substance | Kd
IgE-Fc Q535A (domain or fragment) | 2.5 µM
Recombinant human IgE-Fc (composed of domains Cϵ2-Cϵ4) (domain or fragment) | 2.3 µM
IgE-Fc P439A (domain or fragment) | 2.5 µM
IgE-Fc R351A (domain or fragment) | 2.6 µM
IgE-Fc K380A (domain or fragment) | 13.3 µM
IgE-Fc E412A (domain or fragment) | 24.2 µM
IgE-Fc K352A (domain or fragment) | 3.8 µM
IgE-Fc D409A (domain or fragment) | 26.3 µM

Now from value to substance:

Kd | Substance
2.5 µM | IgE-Fc D347A (domain or fragment)
2.4 µM | IgE-Fc Q538A (domain or fragment)
5 µM | IgE-Fc K435A (domain or fragment)
19.7 µM | IgE-Fc R376A (domain or fragment)

Reference: article PMC3438978
